Data: PMC5923235
Each block holds one substance with its values, some of them ahead of it.

Columns and labels:
[1] = biological target: NTS1 Q378C^8.52 (H8) in the Cys-depleted background of rat neurotensin receptor 1 (rat) (UniProt P20789); assay: FRET or BRET; ensemble FRET as for the apo samples, with 5 μM agonist neurotensin (+NT); A488- and A555-labelled NTS1 1:1 in brain polar lipid liposomes; room temperature
[2] = biological target: NTS1 Q378C^8.52 (H8) in the Cys-depleted background of rat neurotensin receptor 1 (rat) (UniProt P20789); assay: FRET or BRET; ensemble FRET; A488- and A555-labelled NTS1 reconstituted together 1:1 in brain polar lipid liposomes; apo; ~1 μM receptor; 50 mM Tris-HCl pH 7.4, 50 mM NaCl, 1 mM EDTA, 10% glycerol; room temperature; Ecor corrected for donor-to-acceptor ratio
[3] = biological target: NTS1 L371C^7.55 (TM7) in the Cys-depleted background of rat neurotensin receptor 1 (rat) (UniProt P20789); assay: FRET or BRET; ensemble FRET as for the apo samples, with 5 μM agonist neurotensin (+NT); A488- and A555-labelled NTS1 1:1 in brain polar lipid liposomes; room temperature
[4] = biological target: NTS1 L371C^7.55 (TM7) in the Cys-depleted background of rat neurotensin receptor 1 (rat) (UniProt P20789); assay: FRET or BRET; ensemble FRET; A488- and A555-labelled NTS1 reconstituted together 1:1 in brain polar lipid liposomes; apo; ~1 μM receptor; 50 mM Tris-HCl pH 7.4, 50 mM NaCl, 1 mM EDTA, 10% glycerol; room temperature; Ecor corrected for donor-to-acceptor ratio
[5] = biological target: NTS1 A261C^5.52 (TM5) in the Cys-depleted background of rat neurotensin receptor 1 (rat) (UniProt P20789); assay: FRET or BRET; ensemble FRET as for the apo samples, with 5 μM agonist neurotensin (+NT); A488- and A555-labelled NTS1 1:1 in brain polar lipid liposomes; room temperature
[6] = biological target: NTS1 A261C^5.52 (TM5) in the Cys-depleted background of rat neurotensin receptor 1 (rat) (UniProt P20789); assay: FRET or BRET; ensemble FRET; A488- and A555-labelled NTS1 reconstituted together 1:1 in brain polar lipid liposomes; apo; ~1 μM receptor; 50 mM Tris-HCl pH 7.4, 50 mM NaCl, 1 mM EDTA, 10% glycerol; room temperature; Ecor corrected for donor-to-acceptor ratio
[7] = biological target: NTS1 T186C^4.42 (TM4) in the Cys-depleted background of rat neurotensin receptor 1 (rat) (UniProt P20789); assay: FRET or BRET; ensemble FRET as for the apo samples, with 5 μM agonist neurotensin (+NT); A488- and A555-labelled NTS1 1:1 in brain polar lipid liposomes; room temperature
[8] = biological target: NTS1 T186C^4.42 (TM4) in the Cys-depleted background of rat neurotensin receptor 1 (rat) (UniProt P20789); assay: FRET or BRET; ensemble FRET; A488- and A555-labelled NTS1 reconstituted together 1:1 in brain polar lipid liposomes; apo; ~1 μM receptor; 50 mM Tris-HCl pH 7.4, 50 mM NaCl, 1 mM EDTA, 10% glycerol; room temperature; Ecor corrected for donor-to-acceptor ratio
[9] = biological target: NTS1 T186C^4.42 (TM4) in the Cys-depleted background of rat neurotensin receptor 1 (rat) (UniProt P20789); assay: FRET or BRET; single-molecule FRET by TIRF microscopy; Cy3- and Cy5-labelled NTS1 T186C in DPhPC droplet interface bilayers, 100:405:45 Cy3:Cy5:unlabelled, receptor density 0.43 μm^-2; 50 mM NaCl, 1 mM EDTA, 50 mM Tris-HCl pH 7.4; 30 ms frames; constants are of dimer to monomers in two dimensions
[10] = biological target: NTS1 V307C^6.34 (TM6) in the Cys-depleted background of rat neurotensin receptor 1 (rat) (UniProt P20789); assay: FRET or BRET; ensemble FRET as for the apo samples, with 5 μM agonist neurotensin (+NT); A488- and A555-labelled NTS1 1:1 in brain polar lipid liposomes; room temperature
[11] = biological target: NTS1 V307C^6.34 (TM6) in the Cys-depleted background of rat neurotensin receptor 1 (rat) (UniProt P20789); assay: FRET or BRET; ensemble FRET; A488- and A555-labelled NTS1 reconstituted together 1:1 in brain polar lipid liposomes; apo; ~1 μM receptor; 50 mM Tris-HCl pH 7.4, 50 mM NaCl, 1 mM EDTA, 10% glycerol; room temperature; Ecor corrected for donor-to-acceptor ratio
[12] = biological target: NTS1 A90C^1.58 (TM1) in the Cys-depleted background of rat neurotensin receptor 1 (rat) (UniProt P20789); assay: FRET or BRET; ensemble FRET as for the apo samples, with 5 μM agonist neurotensin (+NT); A488- and A555-labelled NTS1 1:1 in brain polar lipid liposomes; room temperature
[13] = biological target: NTS1 A90C^1.58 (TM1) in the Cys-depleted background of rat neurotensin receptor 1 (rat) (UniProt P20789); assay: FRET or BRET; ensemble FRET; A488- and A555-labelled NTS1 reconstituted together 1:1 in brain polar lipid liposomes; apo; ~1 μM receptor; 50 mM Tris-HCl pH 7.4, 50 mM NaCl, 1 mM EDTA, 10% glycerol; room temperature; Ecor corrected for donor-to-acceptor ratio
[14] = biological target: NTS1 S(C)172C^3.55 (TM3, re-introduced native Cys) in the Cys-depleted background of rat neurotensin receptor 1 (rat) (UniProt P20789); assay: FRET or BRET; ensemble FRET as for the apo samples, with 5 μM agonist neurotensin (+NT); A488- and A555-labelled NTS1 1:1 in brain polar lipid liposomes; room temperature
[15] = biological target: NTS1 S(C)172C^3.55 (TM3, re-introduced native Cys) in the Cys-depleted background of rat neurotensin receptor 1 (rat) (UniProt P20789); assay: FRET or BRET; ensemble FRET; A488- and A555-labelled NTS1 reconstituted together 1:1 in brain polar lipid liposomes; apo; ~1 μM receptor; 50 mM Tris-HCl pH 7.4, 50 mM NaCl, 1 mM EDTA, 10% glycerol; room temperature; Ecor corrected for donor-to-acceptor ratio
[16] = biological target: NTS1 Y104C^2.41 (TM2) in the Cys-depleted background of rat neurotensin receptor 1 (rat) (UniProt P20789); assay: FRET or BRET; ensemble FRET as for the apo samples, with 5 μM agonist neurotensin (+NT); A488- and A555-labelled NTS1 1:1 in brain polar lipid liposomes; room temperature
[17] = biological target: NTS1 Y104C^2.41 (TM2) in the Cys-depleted background of rat neurotensin receptor 1 (rat) (UniProt P20789); assay: FRET or BRET; ensemble FRET; A488- and A555-labelled NTS1 reconstituted together 1:1 in brain polar lipid liposomes; apo; ~1 μM receptor; 50 mM Tris-HCl pH 7.4, 50 mM NaCl, 1 mM EDTA, 10% glycerol; room temperature; Ecor corrected for donor-to-acceptor ratio

Substance: NTS1 L371C^7.55 (TM7) in the Cys-depleted background of rat neurotensin receptor 1 (from UniProt P20789 43-424)
Ecor(+NT) [3]: 0.7
Ecor(apo) [4]: 0.68

Substance: NTS1 A261C^5.52 (TM5) in the Cys-depleted background of rat neurotensin receptor 1 (from UniProt P20789 43-424)
Ecor(+NT) [5]: 1.05
Ecor(apo) [6]: 0.98

Substance: NTS1 T186C^4.42 (TM4) in the Cys-depleted background of rat neurotensin receptor 1 (from UniProt P20789 43-424)
Ecor(+NT) [7]: 0.78
Ecor(apo) [8]: 0.77
dimer half-life t1/2 [9]: 1.2 s
koff [9]: 0.58 s⁻¹
percent of receptors as dimers at 0.43 molecules per μm^2 [9]: 9.8%
stoichiometry N [9]: 2

Substance: NTS1 V307C^6.34 (TM6) in the Cys-depleted background of rat neurotensin receptor 1 (from UniProt P20789 43-424)
Ecor(+NT) [10]: 0.82
Ecor(apo) [11]: 0.99

Substance: NTS1 A90C^1.58 (TM1) in the Cys-depleted background of rat neurotensin receptor 1 (from UniProt P20789 43-424)
Ecor(+NT) [12]: 0.77
Ecor(apo) [13]: 0.73

Continued, values first:

Ecor(+NT) [1]: 0.89
Ecor(apo) [2]: 0.89
Substance: NTS1 Q378C^8.52 (H8) in the Cys-depleted background of rat neurotensin receptor 1 (from UniProt P20789 43-424)

Ecor(+NT) [14]: 1.02
Ecor(apo) [15]: 1.03
Substance: NTS1 S(C)172C^3.55 (TM3, re-introduced native Cys) in the Cys-depleted background of rat neurotensin receptor 1 (from UniProt P20789 43-424)

Ecor(+NT) [16]: 0.9
Ecor(apo) [17]: 0.9
Substance: NTS1 Y104C^2.41 (TM2) in the Cys-depleted background of rat neurotensin receptor 1 (from UniProt P20789 43-424)
